Source: patent publication US20120207760A1 (THERACLONE SCIENCES, published 2012)

B1: TCN-545 (5082_I15) (antibody, V domains shown)
VH: QVQLQQWGAGLLKPSETLSLSCAVFGGSFSDYYWTWIRQPPGKGLEWIGEIKHSGRTNYNPSLESRVTISVDTSKNQFSLKLSSVTAADTAIYYCARGTDPDTEGYCRSGSCSAFDFWGQGTLVTVSS
VL: EIVLTQSPGTLSLSPGERATLSCRASHFVNYRSLAWYQQTPGQVPRLLIYGASTRATGIPDRFSGSGSGTDFTLTISRLEPEDFAVYFCQQYGGSPRYTFGQGTRLEIK
B2: TCN-546 (5089_L08) (antibody, V domains shown)
VH: QVQLQQWGAGLLKPSETLSLTCGVYGGSLSDYYWSWIRQPPGKGLEWIGEINHSGGTNYNPSLKRRVTISVDTSKKQFSLKMNSVTAADTAVYYCARGTDPDTEVYCRAGNCAAFDFWGQGTLVTVSS
VL: EIVLTQSPGTLSLSPGERATLSCRASHFVIGRAVAWYQQKPGQAPRLLIYGASSRATGIPDRFSGSGSGTDFTLTISRLETEDFAVFYCQHYGSSPRYAFGQGTKLEIK
B3: TCN-555 (5246_L16) (antibody, V domains shown)
VH: QVQLVQSGAEVKRPGSSVKVSCTASGGIFRKNAISWVRQAPGQGLEWMGGIIAVFNTANYAQKFQNRVKITADESGNTAYMELSSLTSDDTAVYYCASHPKYFYGSGSYPDFWGQGTLVTVSS
VL: QSALTQPRSVSGSPGQSITISCTGGSSDIGASNSVSWYQQHPGKAPKLVIFDVTERPSGVPHRFSGSKSGNTASLTVSGLQPDDEADYFCCAYGGKYLVVFGGGTKVTVL
B4: TCN-554 (5277_M05) (antibody, V domains shown)
VH: QVQLVQSGADLKKPGASVKVSCKASGYTFTDYYIHWVRQAPGQGLEWMGWINPESGDTKYAQKFQGRVTMTRDTSITTAYMELGRLRSDDTAVYYCARDVSTTWSWFAPWGQGTLVTVSS
VL: DIVMTQSPDSLAVSLGERATINCRSSQSIFHNSNNENYLAWYQQKPGQPPKLLIYWASTRESGVPDRFSGSGSGTDFTLTISSLQAEDVAVYFCQQYYNAPLTFGGGTKVEIK
B5: TCN-560 (5084_P10) (antibody, V domains shown)
VH: EVQLVESGGGLVQPGGSLRLSCAASGFIFRNYWMSWVRQAPGKGLEWVANIKQDGREKYYVDSLRGRVNISRDNAENSLYLHMNSLRVEDTAVYFCARARMVVVTGDGFDVWGHGTMVTVSS
VL: DIQMTQSPSSLSASVGDRVTITCRASQNIKRYFNWYQQKPGKAPKLLIYAASNLENGVPSRFSGSGSGTDFTLTISSLQPEDFATYYCQQSFSKSWTFGQGTNVDIK
B6: TCN-552 (5249_I23) (antibody, V domains shown)
VH: QVQVVQSGAEVKKPGSSVRVSCQASGGTFMNYAIIWVRRAPGQGLEWMGGIIPVFPTPNYAQMFQGRVTISTDESRSTSFLELTNLRYEDTAVYYCARRIYHGGNSGFDFWGQGTLVTVSS
VL: EIVLTQSPATLSLSPGERATLSCRASQSVGNYLAWYQQKPGQAPRLLIYDSSNRAPGIPARFSGSGSGTDFTLTISSLAPEDFAVYYCQQRSKWPPMYSFGHGTKLEIK
B7: TCN-553 (5261_C18) (antibody, V domains shown)
VH: QVQVVQSGTEVKKPGSSVKVSCQTSGGRFMSYAITWVRQAPGQGLEWMGGIVPVFGTANYAQKFQGRVTITTDDSTRTAYMELSSLRSEDTAVYYCGFRYGSGYGFDSWGQGTLVTVSS
VL: EIVLTQSPGTLSLSPGERATLSCRASQSVSSSYLAWYQKKPGQAPRLLIYGASTRATGIPDRFTGSGSGTDFTLSISRLEPEDFAVYYCQHFGTSVFTFGGGTKVEIK
B8: TCN-538 (3206_O17) (antibody, V domains shown)
VH: QITLKESGPTLVKPTQTLTLTCVFSGFSLSITGVRVGWIRQPPGKALEWLALISWDDEKHYSPSLQSRLTITKDTSKNQVVLTMTNLDPVDTATYYCARSTDRGHVLRYFGWMLPGDAFDVWGQGTMVTVSS
VL: DIVMTQSPDFLPVSLGERATINCKSSQRVLYSSNNKNYLAWYQLKPGQPPKLIIYWASTRESGVPDRFSGSGSGTEFTLTISSLQAEDVAVYYCQQYYSRPYTFGQGTKLEIK
B9: TCN-536 (5095_N01) (antibody, V domains shown)
VH: QVQLQQWGAGLLKPSETLSLTCAVYGGSFSVSGYYWSWIRQPPGRGLEWIGEISHGGSTNYNPSLKSRVTISVDTTKNQFSLRLSSVTAADTAVYYCARGTDPDTEVYCRVGNCAAFDYWGQGSLVTVSS
VL: EIILAQSPGTLSLSPGERATLSCRASQFVSTRSLAWYQQRPGQAPRLLIYGASSRATGIPDRFSGSGSGTDFTLTISRLEPEDFAVYYCQHYGYSPRYAFGQGSKVEIK
B10: TCN-545 (5082_I15) (antibody, V domains shown)
VH: B1 VH
VL: B1 VL
B11: TCN-543 (5081_G23) (antibody, V domains shown)
VH: QVHLVQSGAEVRKPGDSVKVSCKTSGYTFSTYPVAWVRQVPGQGLEWMGWISTYNGNTNFAQNFQGRVTLTTDTTTNTAYMEVRSLKFDDTAVYYCARVEGSYRDFWNNQNRFDPWGQGTLVTVSS
VL: SYVLTQPPSVSVAPGQTARISCGGSNIGGKSVHWYQQKPGQAPVLVVYDDSGRPSGIPERFSGSNSGDTATLTISRVEAGDEADYFCQVWDNFGGVFGTGTKVTVL
B12: TCN-537 (3194_D21) (antibody, V domains shown)
VH: QVQLQQWGSGLLKPSETLSLTCAVYGGSFRDDYWTWIRQPPGKGLEWIGEINHSGRTNYNPSLKSRVTISVDTSLKQFSLKVISVTAADTAVYYCARGTSHVSRYFDWLPPTNWFDPWGQGTQVTVSS
VL: DIVLTQSPGTLSLSPGERATLSCRASQSVSSSYLAWYQQKPGQAPRLVMYGAATRATGIPDRFSGSGSGPDFTLTISRLEPEDFAMYYCQQYGNSPITFGQGTRLEIK
B13: TCN-554 (5277_M05) (antibody, V domains shown)
VH: B4 VH
VL: B4 VL
B14: TCN-550 (5096_F06) (antibody, V domains shown)
VH: QVQLQESGPGLVKPSETLSLTCTVSGASINSHYWSWIRQPPGKGLEWIGYVYYSGSTTYNPSLKSRVTLSVDTSKNQFSLNLSSVTAADTAFYYCARHPYDVLTGSGDWFDPWGQGTLVTVSS
VL: SYVLTQAPSVSVAPGQTARITCGGNAIGSKKVHWYQHKAGQAPVLVVYDDTDRPSGIPERFSGSNSWSTATLTINRVEAGDEADYYCQVWDFTIDHVVFGGGTKLTVL
B15: TCN-539 (5056_A08) (antibody, V domains shown)
VH: QVQLVESGGGVVQPGRSLRLSCAASEITFITYAMHWVRQAPGKGLEWVALISDDGSNKFYADSVKGRFTISRDNSKNTLYLQMNSLRAEDTAAYYCAREGVYFDSGTYRGYFDYWGQETLVTVSS
VL: EIVLTQSPATLSLSPGERATLSCRASQSVSSYLAWYQQKPGQAPRLLIYDASNRATGIPARFSGSGSGTDFTLTISSLEPEDFAVYYCQQRSHWPPITFGQGTRLEIK
B16: TCN-544 (5082_A19) (antibody, V domains shown)
VH: QVQLQESGPGLVKPSETLSLTCTVSRGSIGHYFWSWIRQPPGKGLEWIGYISYSGSTKYNPSLRSRVTISVDTSKNQFSLNLNSVTATDTALYYCAREDYDILTGAGPGMEVWGQGTTVTVSS
VL: QSMLTQPPSASGTPGQRVTISCSGSSSNIGSNTVNWFKHLPGTAPKLLIYRNDLRPSGVPDRFSGSKSGTSASLAISGLQSEDEADYYCATWDDSLNGFYVFGTGTKVTVL
B17: TCN-540 (5060_F05) (antibody, V domains shown)
VH: QVQLVQSGGGVVQPGRSLRLSCAASGFTFSSYAMHWVRQAPGKGLEWVAIISYDGNDQYYTDSVKGRFTISRDSSKVYLQMHRLRPEDTAVYYCAKEFETSGYFHGSFDYWGQGILVTVSS
VL: QSALTQPASVSGSPGQSITISCTGTSSDVGGYNYVSWYQQHPGKAPKLLIYEVTNWPSGVSNRFSGSKSGNTASLTISGLQAEDEADYYCSSYAGSSTWVFGGGTRVTVL
B18: TCN-551 (5243_D01) (antibody, V domains shown)
VH: EVQLVQSGSEVKKPGESLKISCKGSGYSFSNYWIGWVRHMPGKGLEWMGIIYPGDSDTRYSPSFQGQVTMSADKSSSTVYLQWSSLKASDTAIYYCARRGGHSFGYGSGGDTHSEFDSWGQGTLVTVSS
VL: QSVLTQSPSVSAAPGQKVTISCSGSDSNIGDYFVCWYQHLPGKPPQLLIYENNKRPSGIPDRFSGSKSGTSATLGITGIQTGDEADYYCATWDGSLSAWVFGGGTKLTVL
B19: TCN-534 (5249_B02) (antibody, V domains shown)
VH: QVQLVQSGAEVKKPGSSVKVSCRESGGTFNGYTITWVRQAPGQGLEWMGGIIPMMGTVNYAQKLQGRVTITTDYFTKTAYMDLNNLRSEDTAMYYCVKIRYTGQQLLWGQGTLVTVSS
VL: DIQMTQSPSTLSASIGDRVTITCRASQSIASWLAWYQQKPGKAPKLLIYEAVNLESGVPSRFSGSGSGTDFTLTISSLQPDDFATYFCQHYGTISQTFGGGTKVEIK

What follows are binders tested against T1, hemagglutinin (HA) of influenza A/Solomon Islands/3/06 H1N1 (Influenza A virus A/Solomon …) (assay: ELISA, inactivated whole virions coated; transfection supernatant set 5).

| Binder | OD450 [OD450] |
| --- | --- |
| B1 | 1.36 |
| B2 | 3.67 |
| B3 | 3.57 |
| B4 | 0.18 |
| B5 | 3.52 |
| B6 | 3.61 |
| B7 | 3.56 |

The binders below were run against hemagglutinin (HA) of influenza A/Japan/305/57 H2N2 (Influenza A virus A/Japan/305/1957 …, UniProt P03451 16-562) in the same assay as above.

| Binder | OD450 [OD450] |
| --- | --- |
| B1 | 0.1 |
| B2 | 0.07 |
| B3 | 2.1 |
| B4 | 0.11 |
| B5 | 3.55 |
| B6 | 2.68 |
| B7 | 3.28 |

The binders below were run against T1, hemagglutinin (HA) of influenza … (assay: cell-based or functional assay).

| Binder | % Neutralization [%] |
| --- | --- |
| B1 | 98 |
| B2 | 0 |
| B3 | 48 |
| B4 | 42 |
| B5 | 94 |
| B6 | 57 |
| B7 | 87 |

What follows are binders tested against hemagglutinin (HA) on live influenza A virus A/Wisconsin/67/05 H3N2 (Influenza A virus A/Wisconsin/67/2005 …) (assay: cell-based or functional assay).

| Binder | % Neutralization [%] |
| --- | --- |
| B8 | 0 |
| B9 | 99.9 |
| B10 | 99 |
| B11 | 73 |
| B12 | 0 |
| B13 | 100 |
| B14 | 100 |
| B15 | 99 |
| B16 | 97 |
| B17 | 98 |
| B18 | 6 |
| B19 | 0 |

The binders below were run against hemagglutinin (HA) on live influenza A virus A/Solomon Islands/3/06 H1N1 (Influenza A virus A/Solomon …) (assay: cell-based or functional assay).

| Binder | % Neutralization [%] |
| --- | --- |
| B8 | 21 |
| B9 | 81.6 |
| B10 | 88 |
| B11 | 98 |
| B12 | 0 |
| B17 | 3 |
| B18 | 99 |
| B19 | 65.7 |
